Laboratory results from patent US11667714 (MERUS N V, dated 2023).

B1: MF5359xMF1337 PD-L1xTT bispecific IgG (PD-L1 monovalent) (bispecific antibody, V domains shown)
VH 1: EVQLVQSGAEVKKPGSSVKVSCKASGDTFNTYSITWVRQAPGQGLEWMGSIVPIFGTINNAQKFQGRVTITADKSANTAYMELSSLRSEDTAVYYCARDNTMVRGVDYYYMDVWGKGTMVTVSS
VH 2: not shown
VL: not shown
B2: parental anti-PD-1 IgG PG7686 (antibody, V domains shown)
VH: QVQLVQSGAEVKKPGSSMKVSCKASGGSFSSAVISWVRQAPGQGLEWMGMIIPVFDTASYAKKFQGRVTITADKSTNTVYMELSRLRSEDAAVYYCARGTVEATLLFDYWGRGTLVTVSS
VL: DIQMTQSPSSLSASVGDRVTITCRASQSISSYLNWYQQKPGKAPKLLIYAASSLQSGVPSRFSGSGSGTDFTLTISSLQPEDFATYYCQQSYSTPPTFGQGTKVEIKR
notes: bivalent monospecific IgG; also called MF7686 in bivalent IgG format; copies: 2 + 2
B3: PG7689 (antibody, V domains shown)
VH: QVQLVQSGAEVKKPGSSVRVSCKASGGTFNTYAINWVRQAPGQGLEWVGRIIPIFGTANYAQKFQGRVTISADKSTTTAYMELSSLRSEDTAVFYCAKDETGYSSSNFQHWGRGTLVTVSS
VL: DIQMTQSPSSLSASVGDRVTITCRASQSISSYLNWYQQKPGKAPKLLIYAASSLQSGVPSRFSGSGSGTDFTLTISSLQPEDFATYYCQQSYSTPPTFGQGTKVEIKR
notes: also called parental anti-PD-L1 IgG of MF6974xMF7689; MF7689 in bivalent IgG format
B4: MF6974 as a bivalent antibody (antibody, V domains shown)
VH: EVQLVESGGDLVQPGGSLRLSCAASGFTFNSYAMSWVRQAPGKGLEWVSTISGGGANIYYADSVKGRFTISRDNSKSTLYLQMNSLRAEDTAVYFCASPYGSGYFDVWGQGTLVTVSS
VL: not shown
notes: bivalent anti-PD-1 IgG; copies: 2 + 2
B5: MF5576xMF1337 PD-L1xTT bispecific IgG (PD-L1 monovalent) (bispecific antibody, V domains shown)
VH 1: QVQLVQSGSELKKPGASVKVSCKASGYTFTSHAMNWVRQAPGQGLEWMGWINPNTGNPTYAQGFTGRFVFSLDTSVSTAYLQISSLKAEDTAVYYCAIDRGYMSNWVFAEYFPHWGQGTLVTVSS
VL: not shown
VH 2: not shown
B6: MF5557xMF1337 PD-L1xTT bispecific IgG (PD-L1 monovalent) (bispecific antibody, V domains shown)
VH 1: QVQLVQSGAEVKRPGSSVKVSCKASGGTFNTYSITWVRQAPGQGLEWMGGIIPVFGTSKYAQKFQDRVTITADKSTNTAYMELSSLRSEDTAVYYCARDPSFSSSSGWFDPWGQGTLVTVSS
VH 2: not shown
VL: not shown
B7: MF5382xMF1337 PD-L1xTT bispecific IgG (PD-L1 monovalent) (bispecific antibody, V domains shown)
VH 1: EVQLVQSGAEVKNPGSSVKVSCKATGGTFNTYGTNWVRQAPGQGLEWMGGIIPIFGTANYAQKFQGRVTITADKSTTTAYMEVSSLRSEDTAVYYCARGGADMGTLDYWGQGTLVTVSS
VH 2: not shown
VL: not shown

What was measured:
[1] = target: PD-L1 on CHO cells expressing PD-L1 and a T cell activator (Promega) (UniProt Q9NZQ7 19-290); experiment: cell-based or functional assay
Chain of PD-L1 on CHO cells expressing PD-L1 and a T cell activator (Promega) (Q9NZQ7 19-290): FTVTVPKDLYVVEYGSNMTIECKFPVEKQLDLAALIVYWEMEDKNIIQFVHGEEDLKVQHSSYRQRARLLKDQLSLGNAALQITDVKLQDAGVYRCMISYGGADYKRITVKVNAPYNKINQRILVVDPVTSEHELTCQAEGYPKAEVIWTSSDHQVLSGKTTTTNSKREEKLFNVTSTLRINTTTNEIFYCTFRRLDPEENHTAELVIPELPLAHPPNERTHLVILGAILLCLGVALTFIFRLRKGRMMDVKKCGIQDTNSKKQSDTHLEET

[2] = target: T1, PD-1 on activated human T cells (human, UniProt Q15116 25-288); experiment: FACS on anti-CD3 activated human T cells, goat anti-human IgG-PE, MFI [lower panel]
T1 construct: whole, on cells
T1 sequence (Q15116 25-288): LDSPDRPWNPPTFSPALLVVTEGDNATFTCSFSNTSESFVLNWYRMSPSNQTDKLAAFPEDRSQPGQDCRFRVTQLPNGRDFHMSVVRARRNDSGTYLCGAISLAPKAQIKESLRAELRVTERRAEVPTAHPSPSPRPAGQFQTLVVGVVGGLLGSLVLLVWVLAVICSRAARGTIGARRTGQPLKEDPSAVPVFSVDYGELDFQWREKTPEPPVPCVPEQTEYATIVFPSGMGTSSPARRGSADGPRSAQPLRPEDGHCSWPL

[3] = target: T2, PD-L1 on activated human T cells (human, UniProt Q9NZQ7 19-290); experiment: FACS on anti-CD3 activated human T cells, goat anti-human IgG-PE, MFI [upper panel]
T2 construct: whole, on cells
T2 sequence (Q9NZQ7 19-290): as the sequence (Q9NZQ7 19-290) above

Binder	AUC (PD-1/PD-L1 blockade reporter assay, monovalent) [1]	further results
B1	3.9	–
B2	–	EC50 (read off the curve) [2]: ~0.04 µg/mL
B3	–	EC50 (read off the curve) [3]: ~0.04 µg/mL
B4	–	EC50 (read off the curve) [2]: ~0.05 µg/mL
B5	4.1	–
B6	3.4	–
B7	2.9	–
